For this assay, the target named is recombinant HIV-1BaL gp120 (HIV-1 BaL). Kind of assay: SPR (Biacore 3000), gp120BaL immobilised on CM5 chip, peptide as analyte. (Surface plasmon resonance follows binding to a sensor surface in real time, without labels.)

B1: 12p1 (RINNIPWSEAMM), 12-mer peptide (peptide)
peptide: H-RINNIPWSEAMM-NH2
notes: Quality control peptide of the SPR assay
Consider B1, for which the equilibrium dissociation constant (Kd) (commonly the free concentration of one partner at which half of the binding sites on the other are occupied at equilibrium, for simple one-to-one binding) came out at 1020 nM.
